Molecular target: FcγRIIIa on human PBMC effector cells (heterozygous V158/F158 or allotype not stated) (human) (UniProt P08637)
Assay: cell-based or functional assay

Chain of FcγRIIIa on human PBMC effector cells (heterozygous V158/F158 or allotype not stated) (human) (P08637 17-254): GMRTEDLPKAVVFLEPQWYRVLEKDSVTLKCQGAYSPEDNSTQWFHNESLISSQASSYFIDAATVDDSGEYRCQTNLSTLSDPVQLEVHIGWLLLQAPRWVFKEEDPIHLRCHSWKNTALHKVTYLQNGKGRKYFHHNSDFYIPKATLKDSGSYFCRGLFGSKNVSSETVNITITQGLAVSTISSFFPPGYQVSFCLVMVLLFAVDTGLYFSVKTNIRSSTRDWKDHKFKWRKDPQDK

Substance	ADCC EC50, DoHH-2 target cells, human PBMCs	ADCC log(EC50), DoHH-2 target cells, human PBMCs
S239D/I332E alemtuzumab (antibody)	3 ng/mL	0.49 log(ng/ml)
V264I/I332E alemtuzumab (antibody)	4 ng/mL	0.6 log(ng/ml)

Reference: patent US20090010920A1
